Test results reported in the supplement of paper PMC9170038.

Tested on: MS2 coat protein
Assay: apparent KD of MS2 coat protein; higher = weaker reporter binding
Settings: Eterna round: R107
Method in brief: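 Designed RNA switches were transcribed on-chip from Illumina sequencing clusters and titrated with SNAP-549-labelled MS2 coat protein in twofold steps from 0.7 or 1.5 nM up to 3 µM. Each step lasted 0.8–1.5 h at first and 10–20 min by the end, in 100 mM Tris-HCl pH 7.5, 80 mM KCl and 4 mM MgCl2, without or with constant ligand. Apparent KD is the median, for each design, of fits to normalised cluster binding curves.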

[1] = input ligand: theophylline 20 uM
[2] = input ligand: theophylline 2 mM
[3] = input ligand: tryptophan 2.4 mM

Sequence	apparent KD of MS2 coat protein (input ligand: arginine 13.2 mM)	apparent KD of MS2 coat protein (input ligand: none)	apparent KD of MS2 coat protein [1]	apparent KD of MS2 coat protein [2]	apparent KD of MS2 coat protein [3]
ACAUGAGGAUCACCCAUGUACAUAAGGGAAGGAGCGCGGUGGAACGCAGGUAGGUCGCCCAUAAUAACAAUAAAUAAAUUCAUGU [#04 Same State - Arginine A]	0.0146 µM	0.0147 µM	0.0236 µM	0.0175 µM	0.0165 µM
CUAGACUGUGCGGCCGCCACUGGCUCAUCCUGCAUUACAUGAGGAUCACCCAUGUUGCGGCCUCCCAGGACCGGGCAUAGUCUGC [Riinzaa]	0.091 µM		0.474 µM	0.734 µM	
AAUCUGUCGGGUGAUACCAGCCUCGGCACAUCUCGUGCCGAACAUGAGGAUCACCCAUGUGGCCCUUGGCAGCACAUGACAAAUC [Usreerso]	0.289 µM		0.801 µM		0.52 µM
AAGGUGAUCCGUGAUACCAGCUCAACAUGAGGAUCACCCAUGUAACGGACGAAAGUCCGGAGCCCUUGGCAGCACGGUUGCCAAG [(M)'-(Theo1)-(Ms2)-(Theo2)-(M'')-(T2)'_Design1b]	0.0294 µM	0.127 µM	0.062 µM	0.0125 µM	0.0838 µM
CGUGGUGGGACGGAUACCAGCCACCGCGGCAACGCAACAUGAGGAUCACCCAUGUUGGGUGGCCCUUGGCAGCUGUCCUGCGACG [#1 Same State - Theophylline B Attempt #27 (HarryS)]	0.0115 µM	0.0117 µM	0.0116 µM	0.0117 µM	0.0101 µM
GAGGGUGAAUCUCUAGUCCGUUUGACGGAUACCAGCGAGAGGUAUCGCCCUUGGCAGCCGACGACAUGAGGAUCACCCAUGUUAA [#07 Exclusion-TheophyllineA]	0.0222 µM	0.0406 µM	0.0426 µM	0.022 µM	0.0293 µM
ACGAUAGGACACGAGGAUCACCCGUGUGAUACCAGCCUGGAAACAGGCCCUUGGCAGCACAAAUACUCCAAUAACCUAUCGAAUA [TheoAX 10 #MicroSwitchBubble #AlternativeMS2]	0.0565 µM	0.0963 µM	0.183 µM	0.569 µM	0.106 µM
GUUUUGGGAUCGGCCGCCACUACAUGAGGAUCACCCAUGUGGACAAAUAGGGUUUUUAAGCUCGGUAGGACCGGGAUUCGAACAU [Abeis]	0.0154 µM		0.019 µM	0.0175 µM	
CAGUCUCUAGCGGCCGCCACUGUUCUGCUGGUGCUGCUGAACGAACAUGAGGAUCACCCAUGUCUCAGGACCGGGCUUCAGACUC [theeternabot_sameState_MS2_Trp_B_44]	0.0224 µM		0.0304 µM	0.0333 µM	
AGUCUUAAUGGAAGGAGCGCAGUCAUAACAUGAGGAUCACCCAUGUCGAGGUGAGGGUCAUUGCAGGUAGGUCGCCAUACUAAGA [Same State - Arginine B (Freestyle 3)]	0.125 µM	0.199 µM	0.22 µM	0.265 µM	0.245 µM
UAUCCACAUGAGGAUCACCCAUGUUAGGAAGGAGCGGUGAAUGAACCAGGUAGGUCGCCUAGCUGAGGACCAUCAAUGGAUUCGU [Exclusion - Arginine A (Freestyle 14)]	0.0181 µM	0.0318 µM	0.0354 µM	0.0368 µM	0.0381 µM
AAUAAUAAGGCGGCCGCCACUAAACAUGAGGAUCACCCAUGUCUCGAGGGCUUGCGUUGGGAAAGUAGGACCGGGCCAAUAAUAA [Exclusion - Tryptophan B (Freestyle 7)]	0.0102 µM	0.0187 µM	0.0205 µM	0.0149 µM	0.0133 µM
GGUUGAAACUGAAGGAGCGAGAUCACAAGAUUGGGUCUAACAUGAGGAUCACCCAUGUAAUCUCAGGUAGGUCGCAGUGACCAAA [Exclusion Arginine B GF 13]	0.028 µM	0.0384 µM	0.0451 µM	0.0517 µM	0.0381 µM
GAUUGGAUUUGAAGGAGCGUCGAAAAUGGGUAAACAUGAGGAUCACCCAUGUAAAGGGAACGACAGGUAGGUCGCAAAUUUAAUC [AstromonsSSArgB#31]	0.0847 µM	0.111 µM	0.148 µM	0.213 µM	0.162 µM
ACAUCCAGGUUAAUCGUGGACAUGGUCGAUACCAGUAUUUUAAUCUACCCUUGGCAGCGACAUGAGGAUCACCCAUGUGCGAUGA [XTheo A #14]	0.0138 µM		0.0172 µM		0.0149 µM
CUAUAUAUAAGAAGGAGCGACAUGAGGAUCACCCAUGUCUACCACGUCGAAAGACGCUCAUGUCAGGUAGGUCGCUUAUAUAUAG [Astros-Eli-mod1]	0.108 µM	0.122 µM	0.155 µM	0.139 µM	0.0939 µM
ACAUUUAACUGAAGGAGCGUGAUAUGUACAUGAGGAUCACCCAUGUCUUUCAUGUGAUUUUCACAGGUAGGUCGCAGACUAAUGA [JR_ExcArginiB_Sub003]	0.0118 µM	0.0115 µM	0.0142 µM	0.013 µM	0.0116 µM
GACGGGCCUAUUGAUACCAGACCUAGUGACAACAUGAGGAUCACCCAUGUGACGGCAAAAGUCCCUUGGCAGCAAGUAGAAAUAA [theeternabot_sameState_MS2_Theo_B_41]	0.014 µM		0.0166 µM		0.0154 µM
GAGGGUGGGUCUCUAAUCCGUUUGACGGAUACCAGCGAGAGAUAUCGCCCUUGGCAGCCGACGACAUGAGGAUCACCCAUGUAAA [#06 Exclusion-TheophyllineA]	0.0171 µM		0.0196 µM		0.0169 µM

Sequence	apparent KD of MS2 coat protein (input ligand: arginine 13.2 mM)	apparent KD of MS2 coat protein (input ligand: none)	apparent KD of MS2 coat protein [1]	apparent KD of MS2 coat protein [2]	apparent KD of MS2 coat protein [3]
AGCACUGUGACGGCCGCCACUAUAUAUAGGGUGGUCAGGUUCAUAAUACAUGAGGAUCACCCAUGUAGGACCGGGUCUCAGUGCA [Omei Trp Exc B A v4]	0.0145 µM	0.012 µM	0.0149 µM	0.0109 µM	0.014 µM
ACGACGCAUAGUGAUACCAGUAGAACAUGAGGAUCACCCAUGUCUGUGGCGCUCCGCCUCUGCCCUUGGCAGCACUAUGCGUCAG [SSTheo B #10]	0.0119 µM		0.017 µM		0.0114 µM
UUGGUUAUGCGAAGGAGCGGGAAAUAUAUAUAUAUAAUCCUAACAUGAGGAUCACCCAUGUCCCAGGUAGGUCGCGCAUAGUUGG [12.I]	0.0452 µM	0.0695 µM	0.0803 µM	0.0833 µM	0.0691 µM
ACAUGAGGAUCACCCAUGUAAUAAUCAGAAGGAGCGUGGAAUAACACAGGUAGGUCGCUGAUGUUUGGUUAAAAUUAUUCGUGAA [JR_ExcArginiA_Sub001]	0.0122 µM	0.0131 µM	0.0166 µM	0.014 µM	0.014 µM
GCUAUGGCUGGAAGGAGCGUGAAUUUCAGCGAACAUGAGGAUCACCCAUGUAAGGAUAUGGCACAGGUAGGUCGCUAGCCAUAGC [#19 Same State - Arginine B]	0.0136 µM	0.0143 µM	0.0212 µM	0.0151 µM	0.0134 µM
CCUCAAUCGUCGGCCGCCACUGGAUCAUGCGGAUACAUGAGGAUCACCCAUGUGGGUGUGGUACGCAGGACCGGGACAAGACCCG [#15 Same State - Tryptophan B]	0.164 µM		0.579 µM	1.03 µM	
GGACUAACCAGAAGGAGCGGCACGCAGAAACUGCAAAUUCCUCCACACGAGGAUCACCCGUGUCAGGUAGGUCGCUGGUUAGUCG	0.0336 µM	0.0215 µM	0.0306 µM	0.0276 µM	0.0231 µM
GUUGGAUGCUCGGCCGCCACUGAGAGAGUCAUGUGAACAUGAGGAUCACCCAUGUAAUAUAUAUACAGGACCGGGAGUGUUGUAA [4.J]	0.0197 µM	0.0195 µM	0.0506 µM	0.025 µM	0.0133 µM
AAACGAGAGACAGAUACCAGCGCAGGAACGGAGUAUGGUGACAUGAGGAUCACCCAUGUGCGCCCUUGGCAGCUGAGCCGUAUUG [theeternabot_exclusion_MS2_Theo_B_37]	0.03 µM		0.0433 µM		0.0335 µM
UGGGUAGAAUAGAUAGAUAGAUAAACUGAAGGAGCGAGAAUAAACUCAGGUAGGUCGCAGACAUGAGGAUCACCCAUGUAGAUGG [Same State Arginine A GF15]	0.0911 µM	0.0988 µM	0.0872 µM	0.163 µM	0.0889 µM
CUACAUUUGUAGAAACCGGUCAACAAUAAUCGAGGACCGGUACGGCCGCCACUCGAUGUGAAAUACACAUGAGGAUCACCCAUGU [Tryptophan A 13]	0.0158 µM		0.0191 µM	0.0199 µM	
GAUAUGGAAACAUGUCAGAUCCUUACCGGUCGAGGACCGGUACGGCCGCCACUCGGAAAUAUUGUACAUGAGGAUCACCCAUGUA [Ex Tryptophan A 18]	0.0141 µM		0.0161 µM	0.0161 µM	
UGACAUUGCUCAGAUACCAGACAUGAGCAUCAGCCAUGUACCAAGAGUACAUGUUAAAAUGUCCCUUGGCAGCUGAGCAAUGUCU [Mod of Eli's TheoBX5 #AlternateMS2 v2]	0.0736 µM	0.0676 µM	0.203 µM	0.452 µM	0.0601 µM
UCGUUUUAGUCGGCCGCCACUGUGAGCAUGGUUAACAUGAGGAUCACCCAUGUCCCGUACUAUAACAGGACCGGGACGUAGUUGC [#09 Same State - Tryptophan B]	0.0764 µM		0.109 µM	0.253 µM	
ACACAUGAGGAUCACCCAUGUUCAAUAGAUACCAGUGAUACGGUGCACCCUUGGCAGCUGUUGCUGAGUGAUGGUUCCCUCGGAA [#22 SameState-TheophyllineA]	0.0329 µM		0.0756 µM		0.0525 µM
ACGCGCAGCAGAAGGAGCGUCUUAAUUCUACAUGAGGAUCACCCAUGUUUACAUUGGAUAUGACAGGUAGGUCGCUGGUGUGCGA [#06 Same State - Arginine B]	0.0159 µM	0.018 µM	0.0181 µM	0.0196 µM	0.0156 µM
AGCUCGCAUCCUCUAGCGUCAAAGACGCGUCGAGGACCGGUACGGCCGCCACUCGACUUGAGGAACACCCAAGUCCUAGCGAGCA [TrypAX 12 #SwitchBubble #AlternativeMS2 #MS2Late #CuTurnoff]	0.0622 µM	0.188 µM	0.217 µM	0.306 µM	0.29 µM
ACAGGUACGCCUAUUAAAAUAAAACACCUACGAGGACCGGUACGGCCGCCACUCGGGUGACAUGAGGAUCACCCAUGUGGCUAAA [Ceeron]	0.101 µM		0.61 µM	0.851 µM	
UUAUCUAUAUUCGAUACCAGUACCCUGGCCGCAAAUCCUAACAUGAGGAUCACCCAUGUGUACCCUUGGCAGCGGGUAUGGGUUU [XTheo B #29]	0.0215 µM		0.0351 µM		0.0242 µM
